How the values were obtained:
Type in all cases: cell-based, mouse
[1] = system: pluripotent cells C3H10T1/2, ST2 and C2C12; assay: Wnt-frizzled pathway and osteoblast differentiation, alkaline phosphatase measurement in pluripotent cells; conditions: for effect on BMP-2: C3H10T1/2 cells; for effect on the activity of Wnt proteins (Wnt1, Wnt2, Wnt3a), alkaline phosphatase measurement: overexpression, C3H10T1/2
Text: FIGS. 1 to 7 represents the relationship between members of the Wnt-frizzled family, with bone formation, by measurement of alkaline phosphatase (ALP).
The inventors have also tested the capacity of Fz1 to interact with Wnt proteins and thus affect osteoblast differentiation. Overexpression of Fz1 decreased the activity of Wnt1, Wnt2 and Wnt3a in pluripotent cells C3H10T1/2 as determined by the alkaline phosphatase measurement (FIG. 4). However the expression of Fz3 or Fz4 increased the activity of Wnt proteins in the differentiation process (FIG. 6). […] This indicate that Frizzled may negatively or positively cooperate with their ligand proteins, Wnt, in these bone-related cells.
(§1) Mouse cell lines representing different stages of osteoblastic differentiation, C2C12, C2H10T1/2, ST2 and MC3T3-E1, were grown in the presence of agents capable of the induction of osteoblastic differentiation in vitro such as BMP2 and Sonic Hedgehog or in the presence of TGF beta (negative control) or with serum alone. Primary cells derived from mouse calvaria were also cultured for 0, 2, 7 14 and 21 days and RNA prepared for each time point. For example, C3H10T ½ and C2C12 can be obtained from the ATCC (Manassas, Va., USA) under the collection numbers CCL-226 and CRL-1772, respectively.

C3H10T1/2 cells = assay: Transient over-expression of candidate genes, cooperation with BMP2 by measurement of alkaline phosphatase; parameters: key: +: positive or negative cooperation with BMP2; −: positive or negative cooperation with BMP2; conditions: for Validation in vitro (coop over BMP2) C3H10T1/2: alkaline phosphatase
Experimental: as §1
(§2) The candidates genes are cloned in expression vectors and their ability to express a protein of the expected size verified by COS cells transient transfection. The genes are then transfected in C3H10T1/2 cells and/or C2C12 cells (transient over-expression) and positive or negative cooperation with BMP2 is evaluated by the measurement of alkaline phosphatase (enzymatic assay and TaqMan) at 48 hours. Controls of positive cooperation, recombinant Sonic Hedgehog, or negative cooperation, recombinant Noggin, are included in each test.

C2C12 cells = assay: as above; parameters: key: +: positive or negative cooperation with BMP2; −: positive or negative cooperation with BMP2
Experimental: as §1, §2

Row | Molecule | Validation in vitro (coop over BMP2) C3H10T1/2 (C3H10T1/2 cells) | Validation in vitro (coop over BMP2) C2C12 (C2C12 cells) | other results
1 | SEQ ID No 37: candidate gene, receptor tyrosine kinase Ufo/Ax1, overexpressed in cells |  |  | BMP2 induced Alkaline phosphatase activity ([1]; overexpressed in C2C12 or C3H10T1/2 cells): repress
2 | O=c1cc(-c2ccc(O)cc2)oc2cc(O)cc(O)c12 [Apigenin, reference compound] |  |  | activity of BMP-2 and Shh ([1]; C3H10T1/2, ST2 and C2C12): able to block
3 | TCF4: TCF protein, transcription factor of the Wnt pathway |  |  | effect on BMP-2 [1]: inhibitors
4 | Fz4: frizzled receptor expressed in C3H10T1/2 cells |  |  | effect on the activity of Wnt proteins (Wnt1, Wnt2, Wnt3a), alkaline phosphatase measurement [1]: increased
5 | TCF3: TCF protein, transcription factor of the Wnt pathway |  |  | effect on BMP-2 [1]: inhibitors
6 | Fz3: frizzled receptor expressed in C3H10T1/2 cells |  |  | effect on the activity of Wnt proteins (Wnt1, Wnt2, Wnt3a), alkaline phosphatase measurement [1]: increased
7 | 42 (nucleic acid, listed as Mus musculus) CGATCGATATGGCAGACACGTTTTCGCTTAACGATGCCTTAGCTGGCTCTGGAAACCCAAACCCTCAAGGATATCCGGGTGCATGGGGGAACCAGCCTGGGGCAGGGGGCTACCCAGGGGCTGCCTATCCTGGGGCCTATCCAGGACAGGCTCCTCCAGGGGCCTACCCAGGACAGGCTCCTCCAGGGGCCTATCCAGGACAGGCTCCTCCTAGTGCCTACCCCGGCCCAACTGCCCCTGGAGCTTATCCTGGCCCAACTGCCCCTGGAGCTTATCCTGGCTCAACTGCCCCTGGAGCCTTCCCAGGGCAACCTGGGGCACCTGGGGCCTACCCCAGTGCTCCTGGAGGCTATCCTGCTGCTGGCCCTTATGGTGTCCCCGCTGGACCACTGACGGTGCCCTATGACCTGCCCTTGCCTGGAGGAGTCATGCCCCGCATGCTGATCACAATCATGGGCACAGTGAAACCCAACGCAAACAGGATTGTTCTAGATTTCAGGAGAGGGAATGATGTTGCCTTCCACTTTAACCCCCGCTTCAATGAGAACAACAGAAGAGTCATTGTGTGTAACACGAAGCAGGACAATAACTGGGGAAAGGAAGAAAGACAGTCAGCCTTCCCCTTTGAGAGTGGAAAACCATTCAAAATACAAGTCCTGGTTGAAGCTGACCACTTCAAGGTTGCGGTCAACGATGCTCACCTACTGCAGTACAACCATCGGATGAAGAACCTCCGGGAAATCAGCCAACTGGGGATCAGTGGTGACATAACCCTCACCAGCGCTAACCACGCCATGATCGCGGCCGCTT | − | − | 
8 | 55 (nucleic acid, listed as Mus musculus) CGATCGATATGTCTTCAGGAAATGCAAAAATTGGGTATCCTGCTCCCAACTTCAAAGCTACAGCTGTTATGCCAGATGGACAATTCAAAGATATCAGCCTAAGTGAATACAAAGGAAAATATGTTGTGTTCTTCTTTTACCCTCTTGACTTTACTTTTGTGTGTCCCACGGAGATCATTGCTTTCAGTGATAGAGCCGATGAATTTAAGAAACTCAACTGCCAAGTGATTGGCGCTTCTGTGGATTCTCACTTCTGTCATCTGGCATGGATTAACACACCCAAGAAACAAGGAGGATTGGGACCCATGAACATTCCCTTAATATCAGATCCCAAGCGCACCATTGCTCAGGATTATGGAGTCTTAAAGGCTGATGAAGGTATCTCTTTCAGGGGCCTTTTTATTATTGATGATAAAGGTATCCTTCGACAGATAACAATAAACGATCTTCCCGTTGGCCGCTCTGTGGATGAGATTATACGACTAGTCCAGGCCTTCCAGTTCACTGACAAACATGGTGAAGTGTGTCCAGCTGGCTGGAAACCTGGCAGTGATACCATCAAGCCTGATGTCAATAAGAGCAAAGAGTATTTCTCTAAGCAGAAGGCGGCCGCTT | − | − | 
9 | 11 (nucleic acid, listed as Mus musculus) AATCTAGAATGCAGTGGGCCTCCGTCCTGCTGCTGGCTGGGCTCTGCTCACTTTCCCAGGGCCAGTATGATGAAGACTCTCACTGGTGGATCCAATACCTCCGAAACCAGCAGTCCACCTACTACGACCCCTATGACCCTTACCCCTATGAGCCCTCTGAGCCTTACCCCTATGGAGTGGAAGAAGGCCCAGCCTATGCCTATGGTGCACCACCTCCACCAGAGCCCCGTGATTGTCCCCAAGAATGCGACTGTCCCCCCAACTTCCCCACAGCCATGTACTGTGACAACCGCAACCTCAAGTACCTGCCTTTTGTGCCCTCCCGCATGAAGTACGTCTACTTCCAGAACAACCAGATCTCTGCCATCCAGGAAGGTGTCTTTGACAATGCCACTGGGCTCCTCTGGGTCGCTCTACATGGCAACCAGATTACCAGTGACAAGGTAGGCAGGAAAGTCTTCTCCAAGCTGAGGCACTTGGAGAGGCTGTACTTGGACCACAACAACCTGACCCGGATGCCCGGCCCGCTGCCCCGATCCCTGAGAGAGCTCCACCTGGACCACAACCAGATCTCACGGGTCCCCAACAATGCTTTGGAGGGCCTGGAGAACCTCACGGCCTTATATCTCCACCACAATGAGATCCAGGAAGTGGGGAGTTCCATGAGAGGCCTCCGGTCCCTGATCCTACTAGACCTGAGTTATAACCACCTTCGGAGGGTACCCGACGGTCTGCCCTCAGCCCTGGAGCAGCTGTACCTAGAACACAACAATGTCTACACCGTCCCTGACAGCTACTTCCGGGGGTCACCCAAGCTGCTGTACGTCCGGTTGTCTCACAACAGTCTCACTAACAACGGCCTTGCTACCAACACCTTCAACTCCAGCAGCCTTCTTGAGCTAGACTTGTCTTACAATCAGCTGCAGAAGATCCCTCCTGTCAACACCAACCTGGAGAATCTTTACCTCCAGGGCAACAGGATCAATGAGTTCTCCATCAGCAGCTTCTGCACGGTGGTGGACGTCATGAACTTCTCCAAGCTGCAGGTGCTACGCCTGGATGGGAACGAGATCAAGCGCAGCGCAATGCCGGTGGACGCCCCACTCTGCCTGCGCCTCGCCAACCTCATCGAGATCACTAGTAA | − | − | Validation in C2H10T1/2 (coop over BMP2) (C3H10T1/2 cells; alkaline phosphatase at 48 hours): − coop over BMP2
10 | 63 (nucleic acid, listed as Mus musculus) CGGAATTCGCCATGTCAACAGCAGGAGTTGCTGCTCAGGATATTCGAGTCCCATTAAAAACTGGATTTCTCCATAATGGTCAGGCCTTGGGGAATATGAAGTCCTGCTGGGGCAGTCACAGTGAGTTTGAAAATAACTTTTTAAATATTGATCCAATAACCATGGCCTACAATCTGAACTCCCCTGCTCAGGAGCACCTAACAACTGTTGGATGTGCTGCTCGGTCTGCTCCAGGGAGCGGCCACTTCTTTGCAGAGTGTGGTCCATCTCCAAGGTCAAGCTTGCCCCCTCTTGTTATCTCACCAAGTGAAAGCTCGGGACAGCGTGAAGAGGATCAAGTTATGTGTGGTTTTAAGAAACTCTCAGTGAATGGGGTCTGCACTTCCACACCTCCACTTACACCCATTAAAAGCTGCCCTTCCCCTTTCCCCTGTGCGGCTCTGTGTGATCGGGGTTCTCGGCCGCTCCCGCCACTGCCCATCTCTGAAGACCTATGTGTGGATGAGGCCGACAGTGAGGTAGAGCTTCTAACCACCAGCTCAGACACAGACTTGCTTTTAGAAGACTCTGCGCCTTCAGATTTCAAATACGATGCTCCTGGCAGGCGCAGCTTCCGTGGGTGCGGCCAGATCAACTATGCATATTTTGACAGCCCAACTGTTTCTGTGGCAGATCTTAGCTGTGCATCTGACCAGAACAGAGTTGTTCCAGACCCAAACCCTCCCCCACCTCAAAGCCATCGCAGATTAAGGAGGTCTCACTCAGGACCAGCTGGGTCATTTAACAAGCCAGCCATTCGGATATCTAGCTGCACACACAGAGCTTCTCCTAGCTCTGATGAAGACAAGCCTGAGGTCCCTCCCAGGGTTCCTATACCTCCTAGGCCAGCAAAGCCAGACTATAGACGGTGGTCAGCAGAAGTGACCTCCAACACCTACAGTGATGAAGATAGGCCTCCCAAAGTCCCCCCGAGAGAACCTTTGTCTCGGAGTAACTCCCGTACCCCAAGTCCTAAAAGCCTTCCGTCTTACCTCAATGGGGTCATGCCCCCAACACAGAGCTTCGCTCCTGACCCCAAGTATGTCAGCAGCAAAGCCCTGCAGAGACAGAGCAGCGAAGGATCTGCCAACAAGGTTCCTTGCATCCTGCCCATTATTGAAAATGGGAAGAAGGTTAGCTCAACGCATTATTACTTACTACCTGAGAGGCCACCGTACCTGGACAAATATGAAAAGTATTTTAAGGAAGCAGAAGAAACAAACCCAAGCACCCAAATTCAGCCATTACCTGCTGCCTGTGGTATGGCCTCTGCCACAGAAAAGCTGGCCTCCAGAATGAAAATAGATATGGGTAGCCACGGGAAGCGCAAACACTTATCCTACGTGGTTTCTCCAGCGGCCGCTT | − | − | 

From patent US20040265808A1, “Genes involved in osteogenesis, and methods of use” (priority 2001, published 2004)
